The results in this text go back to paper PMC5897774, “Mitotic spindle association of TACC3 requires Aurora‐A‐dependent stabilization of a cryptic α‐helix” (The EMBO Journal, 2018).

Non-standard residues stand in square brackets, D forms with d. No end group written: not given here. pS = N[C@@H](COP(=O)(O)O)C(=O)O; FAM = fluorescein label

Data set [1] in a line: NMR chemical shift index analysis of TACC3 549–570 helicity. Type of data set: physicochemical. The conditions noted are these: 2 mM peptide, 20 mM Tris pH 7.2, 50 mM NaCl, 290 K, αH and αC secondary shifts. The source says: We used NMR spectroscopy to determine the extent to which these α‐helices are present in TACC3 in the absence of binding partners in solution. Chemical shift index (CSI) plots were created for phosphorylated and unphosphorylated TACC3^CID following standard methods (Fig 7D and E; Wishart & Sykes, 1994). In addition to calculating α‐proton chemical shifts we also measured secondary chemical shifts for α‐carbons. After the type of amino acid, the main contribution to chemical shifts of α‐carbons is the ψ angle and thus the backbone conformation. Proximity of charges or aromatic side chains which can strongly affect proton chemical shifts has virtually no effect on the chemical shifts of α‐carbons which makes them very robust probes of backbone conformation. […] We concluded that phosphorylation of S558 increases the propensity for α‐helix formation in TACC3, and we examined the structure to identify the mechanism.
For analysis of TACC3 549–570 helicity, synthetic peptides were weighed in to give a sample concentration of 2 mM in 20 mM Tris pH 7.2 and 50 mM NaCl. Spectra were recorded at a temperature of 290 K on a Bruker Avance‐Neo 600 MHz spectrometer equipped with a prodigy cryoprobe. Peptides were assigned using 2D NOESY, TOCSY and 13C HSQC spectra recorded with watergate and gradient coherence selection, respectively. […]

Data set [2] concerns the target WT Aurora‐A (of the FP assays) (human) (UniProt O14965).
For data set [3], the target named is FAM‐TACC3 522–536 (WT site 1 peptide) (human) (UniProt Q9Y6A5). The data set is described as follows: fluorescence polarisation; FAM‐TACC3 peptides with Aurora‐A; performed as in Richards et al, 2016; triplicate; one‐site total binding fit; Kd ± SE.
The target in data set [4] is FAM‐TACC3 522–536 F525A (human) (UniProt Q9Y6A5). The data set is described as above.
The target of data set [5] is FAM‐TACC3 522–536 L532A (human) (UniProt Q9Y6A5). The data set is described as above.
Data set [6] deals with FAM‐TACC3 522–536 R526A (human) (UniProt Q9Y6A5). The data set is described as above.
The target in data set [7] is FAM‐TACC3 522–536 phosphorylated on T534 (human) (UniProt Q9Y6A5). The description is as above.
For data set [8], the target named is FAM‐WT TACC3 519–570 (human) (UniProt Q9Y6A5). The data set is described as above.
Data set [9] concerns the target T1, CHC 1–574 (clathrin heavy chain propeller‐ankle fragment) (UniProt Q00610 1-574).
T1 construct: source: modified pGEX vector
T1 sequence (looked up): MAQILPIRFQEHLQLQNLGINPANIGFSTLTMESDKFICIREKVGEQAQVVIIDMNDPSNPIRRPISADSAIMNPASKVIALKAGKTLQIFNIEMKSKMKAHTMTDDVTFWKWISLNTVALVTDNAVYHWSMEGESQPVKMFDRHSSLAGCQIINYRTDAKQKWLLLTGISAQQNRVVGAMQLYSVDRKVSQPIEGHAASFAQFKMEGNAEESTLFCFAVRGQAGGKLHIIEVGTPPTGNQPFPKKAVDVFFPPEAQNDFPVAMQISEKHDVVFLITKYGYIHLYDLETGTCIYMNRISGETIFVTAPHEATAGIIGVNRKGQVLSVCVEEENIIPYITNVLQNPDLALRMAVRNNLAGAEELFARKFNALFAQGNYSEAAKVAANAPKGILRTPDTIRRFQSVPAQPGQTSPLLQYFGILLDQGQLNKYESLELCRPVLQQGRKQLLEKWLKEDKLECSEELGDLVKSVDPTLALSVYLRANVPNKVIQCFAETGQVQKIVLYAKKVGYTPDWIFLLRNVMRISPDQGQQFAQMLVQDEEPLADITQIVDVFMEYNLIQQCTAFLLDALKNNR
The data set is described as follows: fluorescence polarisation; CHC proteins serially diluted in 20 mM HEPES–NaOH pH 7.5, 200 mM NaCl, 5 mM DTT; 50 nM FAM‐labelled TACC3 peptide; 30 min at room temperature; read at 25°C. The following applies: both partners purified.

Data set [10] deals with T2, Aurora‐A 122–403 D274N (human, UniProt O14965 122-403, D274N).
T2 construct: also called Aurora‐A^KD D274N; source: expressed and purified as described in previous work (Burgess et al, 2015)
T2 sequence (looked up): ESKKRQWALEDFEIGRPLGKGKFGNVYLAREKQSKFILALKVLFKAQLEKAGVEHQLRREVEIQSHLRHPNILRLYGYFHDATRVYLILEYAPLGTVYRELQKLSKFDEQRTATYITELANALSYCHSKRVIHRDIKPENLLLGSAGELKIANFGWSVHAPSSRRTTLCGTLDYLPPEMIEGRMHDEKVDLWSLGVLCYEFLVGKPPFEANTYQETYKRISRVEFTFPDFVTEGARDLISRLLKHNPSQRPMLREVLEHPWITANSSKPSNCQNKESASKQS
The data set is described as follows: NMR titration; 13C/15N‐labelled TACC3 peptide (300 μM) alone and in complex with Aurora‐A 122–403 D274N; 20 mM KPO4 pH 7.0, 50 mM NaCl, 1 mM DTT; 298 K; chemical shift perturbation. The conditions noted are these: both partners purified.

The target in data set [11] is T3, CHC 1–574 (clathrin heavy chain propeller‐ankle fragment) (UniProt Q00610 1-574).
T3 chain: T1 sequence (looked up)
The data set is described as follows: FP.

Data set [12] deals with T3, CHC 1–574 (clathrin heavy chain …). Put plainly: FP.

For “FKESALRKQSLYLKFDPLLRDS [unphosphorylated peptide, synthetic TACC3 549–570 peptide, unphosphorylated, used for NMR]”, the “propensity for helix formation (CSI)” value in data set [1] is on record as “tendency towards helix formation”.

“TACC3 519–563‐H6c (WT TACC3^N‐ACIDH6c) (from UniProt Q9Y6A5 519-563) (domain or fragment)”: in data set [2], the 32P‐ATP kinase assay with MBP as substrate: stimulation of Aurora‐A activity is 8 fold.

Turning to “FKESALRKQSLYLKFDPLLRDS [phosphorylated peptide, synthetic TACC3 549–570 peptide phosphorylated at S558, used for NMR]”, the “propensity for helix formation (CSI)” value in data set [1] is recorded as “much higher propensity”.

With “WT Aurora‐A (of the FP assays) (from UniProt O14965 122-403) (domain or fragment)”, the Kd was determined as 20 µM in data set [3]; 2300 µM in data set [4]; 251 µM in data set [5]; 49 µM in data set [6]; 14 µM in data set [7]; 3 µM in data set [8].

B1: FAM‐non‐phosphorylated TACC3^CID (aa549–570) (peptide, UniProt Q9Y6A5 549-570, looked up)
peptide: {FAM}-FKESALRKQSLYLKFDPLLRDS
notes: TACC3, human, aa549–570 (TACC3^CID); also called unphosphorylated TACC3^CID peptide; S558; source: FAM‐labelled peptide (FAM‐TACC3 peptides: PPR, Cambridge; Almac, Craigavon)
Molecule B1 registered a Kd in data set [9] of 216 µM.

B2: ^13C^15N TACC3 519–540 (domain or fragment, human, UniProt Q9Y6A5 519-540, looked up)
chain: ELKEESFRDPAEVLGTGAEVDY
modifications: also: 13C, 15N labelled
notes: TACC3, human, aa519–540 (stop codon at residue 541 of pETM6T1 TACC3 519–563); source: expressed and purified as described for 13C15N‐TACC3 519–563 (Burgess et al, 2015)
Regarding B2, in [10], the binding result is given as “binds”.

In turn, {FAM}-FKESALRKQ[pS]LYLKFDPAARDS [FAM‐phospho‐TACC3^CID L566A, L567A] registered a Kd in [11] of 345 µM.

{FAM}-FKESALAAQ[pS]LYLKFDPLLRDS [FAM‐phospho‐TACC3^CID R555A, K556A]: the Kd in data set [12] stood at 209 µM.
